± gives the uncertainty stated by the source.
Assay: self-splicing fitness, log relative to wild type (ln ratio); higher = more splicing; Tetrahymena group I intron in knt gene, E. coli kanamycin selection, DiMSum; sequences stand for … in CUCUCU…GGAGGGAAAAGUUAUCAGGCAUGCACCUGGUAGCUAGUCUUUAAACCAAUAGAUUGCAUCGGUUUAAAAGGCAAGACCGUCAAAUUGCGGGAAAGGGGUCAACAGCCGUUCAGUACCAAGUCUCAGGGGAAACUUUGAGAUGGCCUUGCAAAGGGUAUGGUAAUAAGCUGACGGACAUGGUCCUAACCACGCAGCCAAGUCCUAAGUCAACAGAUCUUCUGUUGAUAUGGAUGCAGUUCACAGACUAAAUGUCGGUCGGGGAAGAUGUAUUCUUCUCAUAAGAUAUAGUCGGACCUCUCCUUAAUGGGAGCUAGCGGAUGAAGUGAUGCAACACUGGAGCCGCUGGGAACUAAUUUGUAUGCGAAAGUAUAUUGAUUAGUUUUGGAGUACUCGUGGUCG
Summary of the method: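 A randomised library covering all eight P1ex-region intron nucleotides was built with the intron in the knt kanamycin-resistance gene on pET-22b(+) and held in E. coli BL21(DE3). Cells were grown overnight at 37°C or 30°C on LB agar, with or without 25 μg/mL kanamycin, plus 100 μg/mL carbenicillin, 50 μM IPTG and 0.2% rhamnose, and pooled colonies were amplicon-sequenced on an Illumina HiSeq 2500. DiMSum fitness is the error-weighted combination of wild-type-normalised replicate fold changes, kanamycin versus none.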

| Sequence | self-splicing fitness (ln) (30 °C) | self-splicing fitness (ln) (37 °C) |
| --- | --- | --- |
| GAAGAGCAAUAUUACGGAUU | -2.29 ± 0.15 | -1.79 ± 0.19 |
| AUACAGCAAUAUUACGGGCC | -2.7 ± 0.17 | -2.82 ± 0.44 |
| GAUCAGCAAUAUUACGUACG | -1.5 ± 0.14 | -0.586 ± 0.14 |
| CGCGAGCAAUAUUACGCCAC | -3.41 ± 0.47 |  |
| UGAAAGCAAUAUUACGGGCA | -0.0393 ± 0.081 | 0.386 ± 0.092 |
| UCUUAGCAAUAUUACGAGCG | -1.36 ± 0.13 | -0.498 ± 0.15 |
| AGAAAGCAAUAUUACGUCUU | -1.77 ± 0.09 | -0.678 ± 0.088 |
| CCCAAGCAAUAUUACGCCUA | -2.65 ± 0.26 | -2.8 ± 0.31 |
| GUUAAGCAAUAUUACGGUCU | -2.3 ± 0.14 | -0.0437 ± 0.12 |
| AGAGAGCAAUAUUACGAACU | -1.81 ± 0.2 | -1.57 ± 0.2 |
| UAGCAGCAAUAUUACGCAGU | -3.58 ± 0.47 | -2.18 ± 0.21 |
| GUUAAGCAAUAUUACGGUCC | -0.666 ± 0.12 | 0.191 ± 0.15 |
| AGUGAGCAAUAUUACGCUGG |  | -2.84 ± 0.41 |
| GGAUAGCAAUAUUACGCCCG | -1.49 ± 0.24 | -0.949 ± 0.27 |
| CAGGAGCAAUAUUACGCGGC | -1.43 ± 0.36 | -1.14 ± 0.41 |
| ACCUAGCAAUAUUACGGGCU | -1.51 ± 0.076 | -1.35 ± 0.094 |
| UCCCAGCAAUAUUACGAGCG | -3.32 ± 0.33 | -2.02 ± 0.26 |
| AUACAGCAAUAUUACGGCAU | -0.388 ± 0.083 | 0.525 ± 0.099 |
| GUACAGCAAUAUUACGUUAA | -2.28 ± 0.12 | -1.98 ± 0.15 |
| AACGAGCAAUAUUACGCAAA |  | -1.9 ± 0.35 |

| Sequence | self-splicing fitness (ln) (30 °C) | self-splicing fitness (ln) (37 °C) |
| --- | --- | --- |
| AUGUAGCAAUAUUACGGCAU | -1.88 ± 0.12 | -1.69 ± 0.16 |
| CGGAAGCAAUAUUACGUAGC | -2.64 ± 0.38 | -3.47 ± 0.46 |
| CACUAGCAAUAUUACGACCU | -2.03 ± 0.28 | -1.6 ± 0.18 |
| AAUAAGCAAUAUUACGGGGU | -3.91 ± 0.31 | -3.11 ± 0.23 |
| UGCAAGCAAUAUUACGAGCA | -2.28 ± 0.15 | -1.39 ± 0.12 |
| AUCGAGCAAUAUUACGAUUU | -1.42 ± 0.11 | -0.535 ± 0.13 |
| CCACAGCAAUAUUACGGCCA | -3.79 ± 0.29 | -2.75 ± 0.27 |
| CCAAAGCAAUAUUACGUAUA | -4.79 ± 0.32 | -2.3 ± 0.14 |
| CCGUAGCAAUAUUACGUGGG | -4.15 ± 0.2 | -3.05 ± 0.17 |
| CCUUAGCAAUAUUACGUGUA | -4.28 ± 0.43 | -1.47 ± 0.15 |
| GGUUAGCAAUAUUACGUACG | -0.392 ± 0.14 | 0.0535 ± 0.18 |
| GCCAAGCAAUAUUACGCCCG | -2.72 ± 0.29 | -0.836 ± 0.32 |
| AAGUAGCAAUAUUACGCCGU | -1.94 ± 0.19 | -0.462 ± 0.19 |
| CUUUAGCAAUAUUACGGGCG | -0.935 ± 0.12 | 0.00294 ± 0.15 |
| ACUAAGCAAUAUUACGGACC | -1.4 ± 0.15 | -0.596 ± 0.19 |
| UGUUAGCAAUAUUACGAAUU | -1.44 ± 0.11 | -1.6 ± 0.22 |
| AGUGAGCAAUAUUACGCCGC | -1.96 ± 0.25 | -0.183 ± 0.22 |
| AUAAAGCAAUAUUACGUGGC | -3.27 ± 0.13 | -2.69 ± 0.16 |
| UUCGAGCAAUAUUACGAACG | -2.89 ± 0.29 | -0.783 ± 0.33 |

Reference: the supplement of paper PMC7877785
